Test results reported in article doi:10.1101/2025.04.09.647960.

Molecular target: WT myostimulin (human C1orf54, residues 17-131) (human) (UniProt Q8WWF1)
Experiment: RP-HPLC-MS

Q: How did the stoichiometry N turn out when “WT myostimulin (human C1orf54, residues 17-131) (from UniProt Q8WWF1 17-131) (natural protein)” was run?
A: Its stoichiometry N is 2.
